Data reported in publication PMC10397247.

Experiments:
4H486-AA = biological target: T1, 4H486-AA; experiment: two-hybrid library CCmax;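 note: natural log of median RNA to DNA barcode read ratio; higher means stronger binding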
T1 chain: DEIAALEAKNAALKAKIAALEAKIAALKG

4H535-AA = biological target: T2, 4H535-AA; experiment: two-hybrid library CCmax; details: mean of both orientations;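 note: natural log of median RNA to DNA barcode read ratio; higher means stronger binding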
T2 chain: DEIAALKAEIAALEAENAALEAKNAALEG

4H58-AA = biological target: T3, 4H58-AA; experiment: two-hybrid library CCmax; details: mean of both orientations;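 note: natural log of median RNA to DNA barcode read ratio; higher means stronger binding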
T3 chain: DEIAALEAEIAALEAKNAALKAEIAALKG

4H895-AA = biological target: T4, 4H895-AA; experiment: two-hybrid library CCmax; details: mean of both orientations;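 note: natural log of median RNA to DNA barcode read ratio; higher means stronger binding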
T4 chain: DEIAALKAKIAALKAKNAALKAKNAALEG

4H_APH = biological target: T5, 4H_APH; experiment: two-hybrid library CCmax;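 note: natural log of median RNA to DNA barcode read ratio; higher means stronger binding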
T5 chain: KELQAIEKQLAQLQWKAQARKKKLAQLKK

4H_BCR = biological target: T6, 4H_BCR; experiment: two-hybrid library CCmax; details: mean of both orientations;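 note: natural log of median RNA to DNA barcode read ratio; higher means stronger binding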
T6 chain: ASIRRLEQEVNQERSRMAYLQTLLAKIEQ

4H_GCN4 = experiment: two-hybrid library CCmax
Chain of 4H_GCN4 (chain, as listed by the source): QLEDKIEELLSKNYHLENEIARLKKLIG

GCN2_T = experiment: two-hybrid library CCmax
4H457-bH = biological target: T7, 4H457-bH; experiment: two-hybrid library CCNG1
T7 chain: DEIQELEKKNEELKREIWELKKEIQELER

4H575-bH = biological target: T8, 4H575-bH; experiment: two-hybrid library CCNG1
T8 chain: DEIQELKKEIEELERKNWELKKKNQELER

4H683-bH = biological target: T9, 4H683-bH; experiment: two-hybrid library CCNG1
T9 chain: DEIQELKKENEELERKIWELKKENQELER

4H754-bH = biological target: T10, 4H754-bH; experiment: two-hybrid library CCNG1
T10 chain: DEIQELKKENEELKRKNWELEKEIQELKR

4H780-bH = biological target: T11, 4H780-bH; experiment: two-hybrid library CCNG1
T11 chain: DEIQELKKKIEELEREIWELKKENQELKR

4H797-bH = biological target: T12, 4H797-bH; experiment: two-hybrid library CCNG1
T12 chain: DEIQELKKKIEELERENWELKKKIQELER

4H855-bH = biological target: T13, 4H855-bH; experiment: two-hybrid library CCNG1
T13 chain: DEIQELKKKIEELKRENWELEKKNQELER

4H918-bH = biological target: T14, 4H918-bH; experiment: two-hybrid library CCNG1
T14 chain: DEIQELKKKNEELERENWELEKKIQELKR

4H953-bH = biological target: T15, 4H953-bH; experiment: two-hybrid library CCNG1
T15 chain: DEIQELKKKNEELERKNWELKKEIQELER

4H968-bA = biological target: T16, 4H968-bA; experiment: two-hybrid library CCNG1
T16 chain: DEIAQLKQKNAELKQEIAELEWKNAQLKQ

4H968-bH = biological target: T17, 4H968-bH; experiment: two-hybrid library CCNG1
T17 chain: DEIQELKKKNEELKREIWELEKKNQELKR

4H584-bN = biological target: T18, 4H584-bN; experiment: two-hybrid library CCNG1
T18 chain: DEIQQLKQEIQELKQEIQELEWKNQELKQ

4H619-bN = biological target: T19, 4H619-bN; experiment: two-hybrid library CCNG1
T19 chain: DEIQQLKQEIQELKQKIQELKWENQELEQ

4H850-bN = biological target: T20, 4H850-bN; experiment: two-hybrid library CCNG1
T20 chain: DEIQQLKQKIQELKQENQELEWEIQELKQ

4H906-bN = biological target: T21, 4H906-bN; experiment: two-hybrid library CCNG1
T21 chain: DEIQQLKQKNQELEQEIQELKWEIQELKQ

4H3926-bH = biological target: T22, 4H3926-bH; experiment: two-hybrid library CCNG1; details: mean of both orientations
T22 chain: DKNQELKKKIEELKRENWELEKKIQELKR

4H4073-bH = biological target: T23, 4H4073-bH; experiment: two-hybrid library CCNG1
T23 chain: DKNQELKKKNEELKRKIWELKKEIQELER

4H568-bA = biological target: T24, 4H568-bA; experiment: two-hybrid library CCNG1
T24 chain: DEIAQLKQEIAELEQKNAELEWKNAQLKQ

4H591-bH = biological target: T25, 4H591-bH; experiment: two-hybrid library CCNG1
T25 chain: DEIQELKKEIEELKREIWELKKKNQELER

4H626-bH = biological target: T26, 4H626-bH; experiment: two-hybrid library CCNG1
T26 chain: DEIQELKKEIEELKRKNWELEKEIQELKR

4H906-bH = biological target: T27, 4H906-bH; experiment: two-hybrid library CCNG1
T27 chain: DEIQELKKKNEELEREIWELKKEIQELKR

P7mS = biological target: T28, P7mS; experiment: two-hybrid library CC1
T28 chain: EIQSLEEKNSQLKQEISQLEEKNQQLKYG

P8 = biological target: T29, P8; experiment: two-hybrid library CC1; details: mean of both orientations
T29 chain: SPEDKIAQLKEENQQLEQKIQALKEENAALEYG

P8mS = biological target: T30, P8mS; experiment: two-hybrid library CC1; details: mean of both orientations
T30 chain: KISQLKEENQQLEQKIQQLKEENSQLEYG

P9 = biological target: T31, P9; experiment: two-hybrid library CC1; details: mean of both orientations
T31 chain: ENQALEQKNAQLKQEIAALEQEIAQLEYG

O9-bP = biological target: T32, O9-bP; experiment: two-hybrid library CCNG1; details: mean of both orientations
T32 chain: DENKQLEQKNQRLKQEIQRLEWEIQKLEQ

DEIAALEAKNAALKAKIAALEAKIAALKG [4H486-AA]
interaction score (4H486-AA): 0.819 | interaction score (4H535-AA): -1.16 | interaction score (4H58-AA): -0.289 | interaction score (4H895-AA): -1.84 | interaction score (4H_APH): -1.97 | interaction score (4H_BCR): -1.34 | interaction score (4H_GCN4): -1.06 | interaction score (GCN2_T): -0.249

DEIQELEKKNEELKREIWELKKEIQELER [4H457-bH]
interaction score (4H457-bH): 0.207 | interaction score (4H575-bH): -1.98 | interaction score (4H683-bH): -0.297 | interaction score (4H754-bH): -0.826 | interaction score (4H780-bH): -1.57 | interaction score (4H797-bH): -0.848 | interaction score (4H855-bH): -1.6 | interaction score (4H918-bH): -0.832 | interaction score (4H953-bH): -0.857 | interaction score (4H968-bA): 0.553 | interaction score (4H968-bH): 0.389

DEIQQLKQEIQELKQEIQELEWKNQELKQ [4H584-bN]
interaction score (4H584-bN): 0.406 | interaction score (4H619-bN): 1.21 | interaction score (4H850-bN): 0.196 | interaction score (4H906-bN): -0.43

DKNQELKKKIEELKRENWELEKKIQELKR [4H3926-bH]
interaction score (4H3926-bH): 0.997 | interaction score (4H4073-bH): -0.649 | interaction score (4H457-bH): 0.423 | interaction score (4H568-bA): 0.77 | interaction score (4H575-bH): -0.061 | interaction score (4H591-bH): -1.8 | interaction score (4H626-bH): -1.31 | interaction score (4H683-bH): -0.233 | interaction score (4H754-bH): 0.0882 | interaction score (4H780-bH): -0.369 | interaction score (4H797-bH): 0.147 | interaction score (4H855-bH): -0.798 | interaction score (4H906-bH): -1.18 | interaction score (4H953-bH): 1.52 | interaction score (4H968-bH): 1.04

EIQSLEEKNSQLKQEISQLEEKNQQLKYG [P7mS]
interaction score (P7mS): -2.53 | interaction score (P8): 0.285 | interaction score (P8mS): -0.225 | interaction score (P9): -2.27

DENKQLEQKNQRLKQEIQRLEWEIQKLEQ [O9-bP]
interaction score (O9-bP): -0.872
